What was measured:
[1] = biological target: Aβ1-17, the 17 first amino acids of Aβ (UniProt P05067); assay: concentration-dependent binding of recombinant netrin-1 to the peptide; format not stated
Aβ1-40 = Aβ1-40 (UniProt P05067); assay: concentration-dependent binding of recombinant netrin-1 to the Aβ peptide; format not stated

## recombinant netrin-1 (species not stated) (ligand)
[1]
  Kd: 30 nM
Aβ1-40
  Kd: 22 nM
